{"source": "paper PMC5337984", "about": "“CTCF participates in DNA damage response via poly(ADP-ribosyl)ation”", "binders": {"B1": {"name": "insulator DNA 45-mer (dsDNA)", "DNA 1": "CCCCCAGGGATGTAATTACGTCCCTCCCCCGCTAGGGGGCAGCAG", "DNA 2": "CTGCTGCCCCCTAGCGGGGGAGGGACGTAATTACATCCCTGGGGG"}}, "target": "T1, CTCF ZNF1-11 (GST-zinc finger domain) (human, UniProt P49711 266-577)", "T1 sequence": "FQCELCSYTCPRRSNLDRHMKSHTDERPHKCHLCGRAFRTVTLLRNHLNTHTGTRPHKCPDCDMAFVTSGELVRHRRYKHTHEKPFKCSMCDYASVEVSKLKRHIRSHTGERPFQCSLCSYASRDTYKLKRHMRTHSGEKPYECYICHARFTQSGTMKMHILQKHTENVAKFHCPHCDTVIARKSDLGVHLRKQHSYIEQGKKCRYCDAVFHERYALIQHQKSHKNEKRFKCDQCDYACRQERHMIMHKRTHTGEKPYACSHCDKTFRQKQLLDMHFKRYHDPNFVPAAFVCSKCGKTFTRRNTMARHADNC", "assay": "EMSA; 50 mM MgCl2; 200 ng poly(dI/dC); EMSA: 25 mM HEPES pH 8.0, 50 mM KCl, 50 mM MgCl2, 1% NP40, 10% glycerol, 200 ng poly(dI/dC), 20 min at 4 C; 1 pmol protein, 0.5 pmol DNA", "settings": "protein: recombinant; tags: GST (pGEX-4T-1; N-terminal); label: 32P; blunt (only one strand printed; described as duplex oligonucleotide)"}
{"binder": "B1", "values": [{"measurement": "binding result", "result": "binds"}]}
